Data taken from publication PMC9482650, “Quantitative fragmentomics allow affinity mapping of interactomes” (Nature Communications, 2022).

T1: ARHGAP21, Q5T5U3
T1 sequence (Q5T5U3 45-169, limits assumed, looked up): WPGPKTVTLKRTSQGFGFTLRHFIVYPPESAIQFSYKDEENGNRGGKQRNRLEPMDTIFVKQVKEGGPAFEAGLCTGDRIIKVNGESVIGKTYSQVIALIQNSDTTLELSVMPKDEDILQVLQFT

T2: DFNB31_2, Q9P202
T2 sequence (Q9P202 274-371, limits assumed, looked up): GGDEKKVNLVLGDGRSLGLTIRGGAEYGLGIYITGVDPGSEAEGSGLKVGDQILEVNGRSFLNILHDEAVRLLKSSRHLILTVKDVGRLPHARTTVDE

T3: GRIP1_7, Q9Y3R0
T3 sequence (Q9Y3R0 999-1096, limits assumed, looked up): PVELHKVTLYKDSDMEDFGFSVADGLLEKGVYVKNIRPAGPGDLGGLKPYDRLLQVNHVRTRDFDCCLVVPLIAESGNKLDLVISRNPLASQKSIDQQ

T4: HTRA3, P83110
T4 sequence (P83110 354-453, limits assumed, looked up): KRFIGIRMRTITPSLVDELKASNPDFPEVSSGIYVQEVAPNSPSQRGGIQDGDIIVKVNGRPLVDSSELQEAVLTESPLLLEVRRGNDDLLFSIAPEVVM

T5: LIN7A, O14910
T5 sequence (O14910 103-200, limits assumed, looked up): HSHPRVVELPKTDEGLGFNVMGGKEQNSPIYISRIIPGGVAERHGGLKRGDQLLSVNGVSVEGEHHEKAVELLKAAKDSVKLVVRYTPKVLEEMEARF

T6: PDZD2_2, O15018
T6 sequence (O15018 329-429, limits assumed, looked up): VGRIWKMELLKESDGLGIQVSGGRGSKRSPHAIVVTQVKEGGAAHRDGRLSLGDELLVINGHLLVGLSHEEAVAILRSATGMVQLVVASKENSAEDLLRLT

T7: SYNJ2BP, P57105
T7 sequence (P57105 8-110, limits assumed, looked up): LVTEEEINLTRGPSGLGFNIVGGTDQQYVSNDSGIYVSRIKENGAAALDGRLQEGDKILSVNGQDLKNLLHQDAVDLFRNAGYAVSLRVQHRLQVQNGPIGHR

T8: TX1BP3, O14907
T8 sequence (O14907 10-122, limits assumed, looked up): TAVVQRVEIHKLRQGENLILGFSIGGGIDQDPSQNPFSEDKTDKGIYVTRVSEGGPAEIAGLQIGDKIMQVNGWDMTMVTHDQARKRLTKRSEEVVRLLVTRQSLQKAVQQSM


Legend:
Experiment in all cases: holdup assay
Parameters in all cases: key: below the threshold = too weak to quantify, mostly under pKd 3.1 to 4
Settings in all cases: plain residues with an end cap or a label only (N-terminal biotin on a linker: ado-ado)
[1] = target: T1, ARHGAP21, Q5T5U3
[2] = target: T2, DFNB31_2, Q9P202
[3] = target: DLG2_2, Q15700
[4] = target: DLG4_3, P78352
[5] = target: DLG5_1, Q8TDM6
[6] = target: FRMPD2_1, Q68DX3
[7] = target: FRMPD4, Q14CM0
[8] = target: GORASP1, Q9BQQ3
[9] = target: GRID2IP_2, A4D2P6
[10] = target: T3, GRIP1_7, Q9Y3R0
[11] = target: GRIP2_3, Q9C0E4
[12] = target: HTRA1, Q92743
[13] = target: T4, HTRA3, P83110
[14] = target: IL16_3, Q14005
[15] = target: Inadl_10, Q8NI35
[16] = target: Inadl_2, Q8NI35
[17] = target: Inadl_5, Q8NI35
[18] = target: Inadl_8, Q8NI35
[19] = target: T5, LIN7A, O14910
[20] = target: LNX1_2, Q8TBB1
[21] = target: MAGI2_3, Q86UL8
[22] = target: MAGI2_5, Q86UL8
[23] = target: MAGI3_2, Q5TCQ9
[24] = target: T6, PDZD2_2, O15018
[25] = target: PICK1, Q9NRD5
[26] = target: SCRIB_2, Q14160
[27] = target: T7, SYNJ2BP, P57105
[28] = target: TJP1_2, Q07157
[29] = target: T8, TX1BP3, O14907

Chain of MAGI2_5, Q86UL8 (Q86UL8 915-1017): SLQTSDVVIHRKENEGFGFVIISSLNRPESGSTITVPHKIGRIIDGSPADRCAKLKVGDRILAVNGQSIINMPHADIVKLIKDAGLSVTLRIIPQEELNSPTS
Chain of Inadl_10, Q8NI35 (Q8NI35 1673-1763): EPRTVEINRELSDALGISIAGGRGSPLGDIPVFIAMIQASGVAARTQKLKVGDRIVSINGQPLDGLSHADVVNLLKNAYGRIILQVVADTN
Chain of LNX1_2, Q8TBB1 (Q8TBB1 371-470): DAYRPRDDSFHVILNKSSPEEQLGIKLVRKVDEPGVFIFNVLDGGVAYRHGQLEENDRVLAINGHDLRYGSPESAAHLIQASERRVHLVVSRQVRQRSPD
Chain of SCRIB_2, Q14160 (Q14160 857-960): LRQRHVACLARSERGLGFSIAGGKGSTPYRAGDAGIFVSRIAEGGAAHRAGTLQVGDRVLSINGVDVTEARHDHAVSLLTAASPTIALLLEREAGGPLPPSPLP
Chain of Inadl_8, Q8NI35 (Q8NI35 1425-1530): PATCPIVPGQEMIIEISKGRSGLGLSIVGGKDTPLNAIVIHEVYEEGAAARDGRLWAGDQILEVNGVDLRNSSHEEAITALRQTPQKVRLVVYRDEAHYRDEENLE
Chain of GRID2IP_2, A4D2P6 (A4D2P6 272-370): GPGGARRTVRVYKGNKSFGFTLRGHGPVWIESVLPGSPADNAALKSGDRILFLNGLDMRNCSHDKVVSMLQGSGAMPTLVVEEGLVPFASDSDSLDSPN
Chain of FRMPD2_1, Q68DX3 (Q68DX3 770-861): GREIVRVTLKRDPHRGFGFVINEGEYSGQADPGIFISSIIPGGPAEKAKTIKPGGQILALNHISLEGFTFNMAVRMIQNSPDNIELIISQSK
Chain of HTRA1, Q92743 (Q92743 360-477): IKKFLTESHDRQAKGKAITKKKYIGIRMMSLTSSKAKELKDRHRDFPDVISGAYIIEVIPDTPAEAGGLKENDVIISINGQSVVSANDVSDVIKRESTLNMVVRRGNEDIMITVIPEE
Chain of Inadl_5, Q8NI35 (Q8NI35 673-780): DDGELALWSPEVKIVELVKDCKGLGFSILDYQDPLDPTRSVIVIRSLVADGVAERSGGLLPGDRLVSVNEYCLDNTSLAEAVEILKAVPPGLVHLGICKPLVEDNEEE
Chain of TJP1_2, Q07157 (Q07157 181-274): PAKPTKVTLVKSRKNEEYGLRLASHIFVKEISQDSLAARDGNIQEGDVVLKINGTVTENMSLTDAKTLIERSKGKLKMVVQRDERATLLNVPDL
Chain of GRIP2_3, Q9C0E4 (Q9C0E4 238-339): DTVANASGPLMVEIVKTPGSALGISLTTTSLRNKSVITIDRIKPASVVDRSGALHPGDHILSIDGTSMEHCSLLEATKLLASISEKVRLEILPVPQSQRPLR
Chain of Inadl_2, Q8NI35 (Q8NI35 238-335): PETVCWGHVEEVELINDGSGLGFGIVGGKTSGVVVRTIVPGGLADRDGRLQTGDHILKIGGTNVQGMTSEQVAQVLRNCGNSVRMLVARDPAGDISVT
Chain of IL16_3, Q14005 (Q14005 1107-1207): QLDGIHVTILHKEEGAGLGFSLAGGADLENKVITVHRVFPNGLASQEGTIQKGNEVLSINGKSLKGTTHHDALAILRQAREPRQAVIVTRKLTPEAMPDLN
Chain of DLG5_1, Q8TDM6 (Q8TDM6 617-713): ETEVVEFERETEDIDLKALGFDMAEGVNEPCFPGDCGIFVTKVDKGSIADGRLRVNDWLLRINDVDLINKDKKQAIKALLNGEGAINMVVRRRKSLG
Chain of FRMPD4, Q14CM0 (Q14CM0 67-160): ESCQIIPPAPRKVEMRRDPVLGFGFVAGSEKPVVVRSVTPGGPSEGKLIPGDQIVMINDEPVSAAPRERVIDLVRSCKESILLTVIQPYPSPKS
Chain of DLG2_2, Q15700 (Q15700 189-283): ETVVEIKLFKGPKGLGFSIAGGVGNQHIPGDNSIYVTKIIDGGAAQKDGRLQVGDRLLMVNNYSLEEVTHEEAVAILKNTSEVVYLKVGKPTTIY
Chain of PICK1, Q9NRD5 (Q9NRD5 17-115): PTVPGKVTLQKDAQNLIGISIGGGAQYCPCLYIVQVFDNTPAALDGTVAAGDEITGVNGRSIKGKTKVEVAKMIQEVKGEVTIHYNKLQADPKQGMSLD
Chain of DLG4_3, P78352 (P78352 306-403): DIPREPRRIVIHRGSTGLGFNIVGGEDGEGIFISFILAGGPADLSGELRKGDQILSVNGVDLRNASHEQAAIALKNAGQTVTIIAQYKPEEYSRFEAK
Chain of MAGI3_2, Q5TCQ9 (Q5TCQ9 398-503): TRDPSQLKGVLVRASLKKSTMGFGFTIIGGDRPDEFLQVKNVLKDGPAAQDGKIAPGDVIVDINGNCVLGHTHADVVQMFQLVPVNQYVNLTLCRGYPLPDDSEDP
Chain of MAGI2_3, Q86UL8 (Q86UL8 600-682): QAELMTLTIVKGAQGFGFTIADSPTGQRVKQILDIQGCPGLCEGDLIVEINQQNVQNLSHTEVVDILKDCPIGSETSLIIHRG
Chain of GORASP1, Q9BQQ3 (Q9BQQ3 1-208): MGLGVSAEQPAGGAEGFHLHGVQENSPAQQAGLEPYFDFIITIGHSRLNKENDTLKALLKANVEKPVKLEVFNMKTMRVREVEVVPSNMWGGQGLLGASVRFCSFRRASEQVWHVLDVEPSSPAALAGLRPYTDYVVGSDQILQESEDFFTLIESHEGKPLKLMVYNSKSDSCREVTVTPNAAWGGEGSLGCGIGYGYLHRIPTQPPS

Row | Binder | pKd [1] | pKd [2] | pKd [3] | pKd [4] | pKd [5] | pKd [6] | pKd [7] | pKd [8] | pKd [9] | pKd [10] | pKd [11] | pKd [12] | pKd [13] | pKd [14] | pKd [15] | pKd [16] | pKd [17] | pKd [18] | pKd [19] | pKd [20] | other results
1 | TMQMSLKDLL [GLA, P06280] | 3.54 | below the threshold | 3.62 | 3.55 | below the threshold | below the threshold | 3.67 | 3.61 | 3.69 | below the threshold | below the threshold | 3.74 | below the threshold | 3.5 | below the threshold | below the threshold | below the threshold | below the threshold | below the threshold | below the threshold | pKd [21]: below the threshold; pKd [22]: below the threshold; pKd [23]: below the threshold; pKd [24]: below the threshold; pKd [25]: below the threshold; pKd [26]: below the threshold; pKd [27]: below the threshold; pKd [28]: below the threshold; pKd [29]: below the threshold
2 | GCQGETEDVL [PTH2R, P49190] | 4.18 | below the threshold | below the threshold | below the threshold | below the threshold | below the threshold | 4.21 | below the threshold | below the threshold | below the threshold | below the threshold | 4.14 | below the threshold | below the threshold | below the threshold | below the threshold | below the threshold | below the threshold | below the threshold | below the threshold | pKd [21]: below the threshold; pKd [22]: below the threshold; pKd [23]: below the threshold; pKd [24]: below the threshold; pKd [25]: 3.99; pKd [26]: below the threshold; pKd [27]: below the threshold; pKd [28]: below the threshold; pKd [29]: below the threshold
3 | RALRASESGI [ADGRE5, P48960] | 4.03 | below the threshold | below the threshold | below the threshold | below the threshold | below the threshold | below the threshold | below the threshold | below the threshold | below the threshold | below the threshold | below the threshold | below the threshold | below the threshold | below the threshold | below the threshold | below the threshold | below the threshold | below the threshold | below the threshold | pKd [21]: below the threshold; pKd [22]: below the threshold; pKd [23]: below the threshold; pKd [24]: below the threshold; pKd [25]: below the threshold; pKd [26]: below the threshold; pKd [27]: 3.79; pKd [28]: below the threshold; pKd [29]: below the threshold

Second part, led by results:

Row | pKd [1] | pKd [2] | pKd [3] | pKd [4] | pKd [5] | pKd [6] | pKd [7] | pKd [8] | pKd [9] | pKd [10] | pKd [11] | pKd [12] | pKd [13] | pKd [14] | pKd [15] | pKd [16] | pKd [17] | pKd [18] | pKd [19] | pKd [20] | Binder | other results
4 | 3.74 | below the threshold | below the threshold | below the threshold | below the threshold | below the threshold | below the threshold | below the threshold | below the threshold | below the threshold | below the threshold | below the threshold | below the threshold | below the threshold | below the threshold | below the threshold | below the threshold | below the threshold | below the threshold | below the threshold | SRPRPDDLEI [GJA1, P17302] | pKd [21]: below the threshold; pKd [22]: below the threshold; pKd [23]: below the threshold; pKd [24]: below the threshold; pKd [25]: below the threshold; pKd [26]: below the threshold; pKd [27]: below the threshold; pKd [28]: 4.53; pKd [29]: below the threshold
5 | 3.96 | below the threshold | 4.87 | below the threshold | below the threshold | 3.56 | below the threshold | 4.72 | 4.17 | below the threshold | below the threshold | 5.07 | 3.92 | below the threshold | 3.75 | 3.76 | 3.87 | 4.19 | below the threshold | 4.37 | PMESGICTIV [TTC24, A2A3L6] | pKd [21]: below the threshold; pKd [22]: 4.63; pKd [23]: 4.52; pKd [24]: 4.68; pKd [25]: 4.3; pKd [26]: below the threshold; pKd [27]: 3.79; pKd [28]: 3.56; pKd [29]: below the threshold
